Source: the DeepSol protein solubility set

experiment: soluble on expression in E. coli; label from the status in PepcDB or PDB records

Sequence	soluble on expression in E. coli
MPVNNENLTSVLDARPFELSEEQKSPLFKANLLAELVHHYQCNEMYRKFCQKNKFDPLVFDGEVADIPPIPVHIFKAIGHKLSSVSDDTIKAKLQSSATSGVPSTILLDKVTARRQTRAMARVMQEVLGPKRRPFCIMDIDPTSPNATNLGARIAAVKGYLNFASTSKYFIDADSPSAPLEFLEQKFVEHLNSLASEEPLIIFGFTFVLYHTVFKTLKDKGISFQLPKGSQVIHIGGWKKLESEKVDKITFNRDIASVLGISPDDVVDIYGFTEQMGLNYPDCKAGWKHIHAYSDVIIRDESNLEVCGPGKVGLLEFVSPLPHSYPGNVVLTDDLGVIEESLCECGKAGKRFKVIGRAKKAEVRGCGDVMSEKLTKKPSYKPLSQQEERLTIYHSPIFLDDTMLEHHHHHH	soluble
MGHHHHHHSHTVCSLSSGKFGTLLSGSWDTTAKVWLNDKCMMTLQGHTAAVWAVKILPEQGLMLTGSADKTVKLWKAGRCERTFSGHEDCVRGLAILSETEFLSCANDASIRRWQITGECLEVYYGHTNYIYSISVFPNCRDFVTTAEDRSLRIWKHGECAQTIRLPAQSIWCCCVLDNGDIVVGASDGIIRVFTESEDRTASAEEIKAFEKELSHATIDSKTGDLGDINAEQLPGREHLNEPGTREGQTRLIRDGEKVEAYQWSVSEGRWIKIGDVVGS	not soluble
AYPSFEAYSNYKVDRTDLETFLDKQKEVSLYYLLQNIAYPEGQFNNGVPGTVIASPSTSNPDYYYQWTRDSAITFLTVLSELEDNNFNTTLAKAVEYYINTSYNLQRTSNPSGSFDDENHKGLGEPKFNTDGSAYTGAWGRPQNDGPALRAYAISRYLNDVNSLNEGKLVLTDSGDINFSSTEDIYKNIIKPDLEYVIGYWDSTGFDLWEENQGRHFFTSLVQQKALAYAVDIAKSFDDGDFANTLSSTASTLESYLSGSDGGFVNTDVNHIVENPDLLQQNSRQGLDSATYIGPLLTHDIGESSSTPFDVDNEYVLQSYYLLLEDNKDRYSVNSAYSAGAAIGRYPEDVYNGDGSSEGNPWFLATAYAAQVPYKLAYDAKSASNDITINKINYDFFNKYIVDLSTINSAYQSSDSVTIKSGSDEFNTVADNLVTFGDSFLQVILDHINDDGSLNEQLNRYTGYSTGAYSLTWSSGALLEAIRLRNKVKALA	soluble
MAQRRESLNMGEFAEEAIIVEEVAAPKRVNHFIEANTQEVTLQHLQQDCIIPSFASMEETISHQSFIGAVVDAAKDYFHGEQFDMPEIRISHPINGRIPSALGKKASELTDEEKTLFYQRMCFCFEIPSIVHDEYGNRLALSIGGVRAYNEINLYSKKSVERFKIFIGFRNRVCSNLMLTTDGLQDKIEVLSIQELYAAALNLFHAYNPSKDLHLLRTLGQMSISTSEFCQIIGRMRLYQALTPNQQKRLPRLLLGDSQINAACRAFVSDANFKSTGDSITGWQLLNLLNGSVKSSYIDNFLERNLNCTEFVQGIQRAKLGDSEYAWFLG	not soluble
MKVGIIMGSVRAKRVCPEIAAYVKRTIENSEELIDQKLKIQVVDLQQIALPLYEDDDELIPAQIKSVDEYADSKTRSWSRIVNALDIIVFVTPQYNWGYPAALKNAIDRLYHEWHGKPALVVSYGGHGGSKCNDQLQEVLHGLKMNVIGGVAVKIPVGTIPLPEDIVPQLSVHNEEILQLLASCIETTRNK	soluble
MAHHHHHHMLWVDKYRPKSLVEVELYPELTEVLKRLAESQDLPHLLLYGPSGTGKKTRAMAVLHHVYGPSVYSLRLEHRSVQVTDSKVVDIATLSSPHHIDINPSDAGNYDRVIVMQMIREIAQTVSLQSSTSNGVKYKVVLLNEVDKMGRAAQHALRRTMEKYMSTCRLVLICNSTSRLIAPLRSRCLAVRVPSHSKENLTKVIRGVCERENRPLPSPEFMATVTQRSEGNLRRALLMVEAAAMTKVDFSGNGADIPQPDWRVFLDEIANDILSEQTPKKLHEIRGKFYNLLGQCVSGELILRLVLEKLMSAVDPALRRPLVALAAQYDHNMKLGTKTIVHLEAFAAGVMQLLKQK	not soluble
ALSRYLLTESPAVCVLSGERGVGTTTLLNRILNKVKNATPIYINCPYDGYSALLPELAKQLGLDEESSERDILQYLRNSDTCYLLAFDSAQRLVKPKVNGLADLMKLTNLLRRARKSHRVVLAIEKSCWRFIDRARGERLLFDLVTFMP	not soluble
MSLGANIVSVEFIPVNVAATNWSENTVIVKVTDENGVYGLGEADGPPECMKAFSEIENEHKWLNNIKEAVIGRDPLEFRANYNRMYDTTKWIGMRGLGLFAISGIDMALYDLAGKQLGVPAYKLMGGAQKAQLTPYFTLYPSVAADATLSEIVEAYKPLIAKAKERGAKAVKVCIIPNDKVSDKEIVAYLRELREVIGWDMDMMVDCLYRWTDWQKARWTFRQLEDIDLYFIEACLQHDDLIGHQKLAAAINTRLCGAEMSTTRFEAQEWLEKTGISVVQSDYNRCGGVTELLRIMDICEHHNAQLMPHNWKTGITAAAARHFGIVCHISEYVEYLHPDFWNGTLTQQLTLNEPKIIDGAIEVSDKPGLGIELNIEFVEQVTGHKFEGHHHHHH	soluble
MALSTLNREVIKKNLQNEEYDVVIIGGGITGAGIALDASQRGMKVALVEMQDFAQGTSSRSTKLVHGGLRYLKQAQIKVVAETGKERAIVYENGPHVTTPEWMLLPMHKGGTFGKFTTNLGLTAYDRLAGVKKYERKKMLSKKQTLNKEPLVKKDGLKGGGYYVEYRTDDARLTIEVMKRAEENGAEILNHTKSTDFIYDSKSKVRGIEVQDLLTGEMYEINAKKVINAAGPWVDEVRKKDYTRNNKQLRLTKGVHVVIDQSKFPLRQAVYFDTEKDGRMIFAIPREGKAYVGTTDTFYDNDKTKPLTTQEDRDYLIDAINYMFPDVNVKDEDIESTWAGVRPLILEDGKDPSEISRKDEIWEGKSGLLTIAGGKLTGYRHMALEIVDLLAKRLKQEYKLTFAECKTKHTPISGGDVGGSANFESFVERKVEEGKAIGLQADVAKRLASKYGSNVDKLYNIAQIAQDKDLKLPLELYVELVYSVQNEMVFKPTDFLIRRSGKLYFNINEVKQYKDAVVEELAKLLNYTQSQQNEFTKEINIAIEEATRGNEQLAVLKLEHHHHHH	soluble
MSEASRDDYKIQSFDAQTQQLLKTALKDPGAVDLERVANVIVDHSLQDCVFSKEAGRMCYAIIQAESKQAGQSVFRRGLLNRLQKEYDAREQLRACSLQGWVCYVTFICNIFDYLRVNNMPMMALVNPVYDCLFQLAQPESLSREEEVDCLVLQLHRVGEQLEKMNGQRMDELFILIRDGFLLPTDLSSLARLLLLEMIEFRAAGWKTTPAAHKYYYSEVSD	not soluble
MGSDKIHHHHHHMSRQKFVNRERELAFLEERYASGDAELLIIYGRRRIGKTELLLHFARNKEHVYFLASEKPYRDNLRELQRMMGDFLGDRLFSRIEFSDIDELLIEFSKRVRGRRVVLIIDEFPYLIEHYKPVLSLIQRAWDMELSKSDLLLILCGSSVSSMETEVLGYKSPLYGRRTGQWMVDELPFWSLREFFPSYSTEDIVKVYGVLGGIPAYLLQFDPEKSFDENVVEKVLSKGAFLYEEAEILLKEEMREPANYFIILQAIASGRSRFGEIVNATGLDKSLVSKYLNVLEKLRIVEREVPVTASRKEALKRGKYSITDNYLAFWFRYVLPNKSYLETGLGKEIWERSKEDFKEYMGGVFERLLRKPEVFTKLTNFRFTKIGRWWHKGEEIDLVALNEREKKALFIEVKWKDLSEREARGILKDLKRKVKLVGLDEWGKHYGLVAKNVKGKDKIKEEGWLAWDLEDFERLGVSG	not soluble
MSLELPFSNQSIIPAAHNQKDMEKILELDLTYMVMLETHVAQLKALVKYAQAGGKKVLLHADLVNGLKNDDYAIDFLCTEICPDGIISTRGNAIMKAKQHKMLAIQRLFMIDSSAYNKGVALIQKVQPDCIELLPGIIPEQVQKMTQKLHIPVIAGGLIETSEQVNQVIASGAIAVTTSNKHLWEGHHHHHH	soluble
MWDKSLVFTFFRRRFGMALSTFKREHIKKNLRNDEYDLVIIGGGITGAGIALDASERGMKVALVEMQDFAQGTSSRSTKLVHGGLRYLKQFQIGVVAETGKERAIVYENGPHVTTPEWMLLPMHKGGTFGKFSTSIGLGMYDRLAGVKKSERKKMLSKKETLAKEPLVKKEGLKGGGYYVEYRTDDARLTIEVMKRAAEKGAEIINYTKSEHFTYDKNQQVNGVKVIDKLTNENYTIKAKKVVNAAGPWVDDVRSGDYARNNKKLRLTKGVHVVIDQSKFPLGQAVYFDTEKDGRMIFAIPREGKAYVGTTDTFYDNIKSSPLTTQEDRDYLIDAINYMFPSVNVTDEDIESTWAGIRPLIYEEGKDPSEISRKDEIWEGKSGLLTIAGGKLTGYRHMAQDIVDLVSKRLKKDYGLTFSPCNTKGLAISGGDVGGSKNFDAFVEQKVDVAKGFGIDEDVARRLASKYGSNVDELFNIAQTSQYHDSKLPLEIYVELVYSIQQEMVYKPNDFLVRRSGKMYFNIKDVLDYKDAVIDIMADMLDYSPAQIEAYTEEVEQAIKEAQHGNNQPAVKELEHHHHHH	soluble
MKLILNTPGLYLCKRGECFQIQSENEKREIAATKVDQIMITTHAALTTDAIELALEYNIDIIFLKNTGQPMGRVWHSKLGSISTIRRKQLFLQDSPLGLQLVKEWILEKMDNQIRLLKKLEVNRRDDEKRAIIRDTIEKIEKQKANIMSINNKETVNNVRNMLLGYEGTAGRVYFETLGKLIPEKYAFEARSRNPAKDPFNCMLNYSYGILYSSVEKACIIAGLDPYIGIMHTDNYNKKALVYDMVEMYRGYMDEIVFRLFSTKKVQDDFFDKIEDGYYLNKEGKQLLISEYNKELEVKMNYRGRRIEFANIIQYDCHQIANRILKEDIPC	soluble
MTNAGTTDLSWLPSDADEQLALGFKIVTNAYKTRVTSQEAEIRSLKGQLTEKQEQLSSIQKKYSNLEVQLIESTQRGNQLADENKQLITTIKKLNRDIDRLENLKKAVLNSIQEEHDVEDAHKYYSADDLLQTTAPRTMLEMNGNEDSCQSIINKIVNSDTHNIINGSFNSPYIGNVPLGEKNTDGRAFFRNARSRLSYEQFNQFLSNIKKLNNHQQKREETLKKAQAIFGEANLDLYEEFKVLISKHS	not soluble
MGKLNRRDVIKGLGMAAASLAAAQRGLQARAAPSRIVWSPYVVFLNANAKAFIVDTRTDQVVASLDTARGATLGSMTPDAKKVYVSGAGEGETRVVILDLENLRVAKVLETGNRPKHGLVSPDGRRVGVDHWALSGGKLRLTFIRTEDDTIEKVLDIPVTNQPKGVTSMHNAWSWDSRYFFSVDRVDDRLVVVDTADWSVRTFSAPSVPHYPVVSPDGKELWLVHEGNDRVRPGIAVYDLTRPDLPIVAQVEMPLIGEDAVEAHHGNFTQDGRYFMALNRGPGNNLRGREVAFFSPRTKRLVHRLTCASTGVGHAYNSPDGRRVIATNYGNNVITVIDLLGLRTLKDLVIGKGRMGHVVFTPDGRFAYLSNADGNLYKLDMRSLTVVKVIETGQTNGGGQVLNVWTNVFEELPRG	soluble
MGSDKIHHHHHHMTIDDFYSFITLYKTRNISDAAIALNITQSALSKRLRNMQQELDTALISTRNKRQLTITESGEVFFRYAQTLTAQYQLLQQELLDYRELRRGTIQIGSVPVMAQYGLASKMSQFMQDYPQINFSLAELEGADLLTQLQHQSFDLGILRDVQSQQLNHSQFDAVTLTDDELKVVLPSDHPLAHQTSIQLPDLRPFDVVTLSPGSGVYERISERYQQAGFTPNIRFSTPHIETLLAMIAHTDRVTFLFAKSVAPFMTADFVMRPFTDPIISHLQLVYPHGTLSPAAQRFIHYLTD	not soluble
MFSSSKLVNAVAQRLLDTIEQGRWVAGQMLPGQRELAEQMEISRPSLREAIMVLETLGVVRSLPGKGVMVLERSEPLREVAAPGEATMEDVLQLRYALEPFIVGIVAQSAGAAEISELRLLLLDLREAVEDGDPQALVEAYTAFHRRLVKLTSNPIFLSVSEQIGSALERSDNLVRRQPEYAEEILQEHDAILRAIRQHDSERASQAMRQHILNEGARLNIDLRLPQV	not soluble
